Entries after “also recorded” stand apart in the source; their conditions may differ.
Legend:
[1] = Phase I dose-escalation study: pharmacokinetics; format: in vivo, humans; conditions: patients
Experimental: (§1) Study design. There are two stages to this study, a dose-escalation stage and an expansion stage.
(§2) Study treatment. […] Dose levels tested in Phase I were: 1 mg/kg, 4 mg/kg, 10 mg/kg, 20 mg/kg, and 30 mg/kg.
MetMAb was administered as an IV infusion. […] The MetMAb infusion was slowed or interrupted for patients experiencing infusion-associated symptoms.
Pharmacokinetics of the study drug were determined by serially monitoring of serum samples for MetMAb throughout the study.

HGF = assay: Phase I study: serum HGF levels by ELISA; format: in vivo, humans
Experimental: Pre- and post-dose serum is collected for evaluation of pharmacodynamic (PD) biomarkers that could be affected by inhibition of Met signaling. In addition, archival tissue is obtained for exploratory diagnostic assessments.
Serum HGF levels were determined using ELISA. […] For patient 12007, HGF expression increased to baseline levels in subsequent cycles. For patient 11009, HGF levels decreased by 70% post drug treatment and remained low for the duration of the study.

[2] = Estimation of human PK by allometric scaling; set-up: species or system humans
Description: Estimation of Human PK Profile.
One approach was allometric scaling, which is based on the assumption that many physical and physiological parameters vary according to a mathematical function of body weight (BW)
Y=a×BWb • where Y is the variable of interest, a is the y-axis intercept, and b is slope.
The log plot of CL value versus body weight, repression, and R-squared values were generated by KaleidaGraph (version 3.6).

[3] = Safety factor calculation (cynomolgus monkey vs proposed human starting dose); set-up: species or system cynomolgus monkeys; conditions: Planned Phase Ia starting dose 1 mg/kg
Experimental: Safety Factor Calculation. Safety factor was calculated for Dose, AUC, Cmax as the ratio at the highest non-severely toxic dose (HNSTD) observed in the single or repeat-dose safety study to the proposed phase I starting dose. The equations are:
Safety factor (SF)Dose=DoseCyno/DoseHuman
SFCmax=(Cmax-Cyno)/(Cmax-Human)
For body surface area calculation: The body weight to surface area index is 12 kg/m^2 for cynomolgus monkeys and 37.5 kg/m^2 for humans.

[4] = PK study, single IV bolus dose in Sprague-Dawley rats; format: in vivo
Experimental: PK studies. PK studies were conducted in mice, rats, and cynomolgus monkeys.
Pharmacokinetic Assays for MetMAb in Mouse Serum and Rat Serum. […] A direct ELISA assay was developed for quantification of MetMAb in mouse serum and Sprague-Dawley rat serum. Plates were coated with human c-Met-Fc fusion protein to which samples, standards, and dosing solutions were added. Goat anti-human F(Ab′)2 horseradish peroxidase (HRP) was used for detection. Tetrapethyl benzidine (TMB) peroxidase substrate was added for signal development. The substrate reaction was stopped with phosphoric acid. The plates were read at an absorbance of 450 nm. […] The lower limit of quantitation in the assay was 0.47 ng/mL and the upper limit of quantification was 30 ng/mL. The minimum dilution for nude mouse serum samples was 1/10, resulting in a minimum quantifiable concentration of 4.7 ng/mL, with an indefinite upper limit. The minimum dilution for rat serum samples was 1/50, resulting in a minimum quantifiable concentration of 23.5 ng/mL, with an indefinite upper limit.
Mouse, Rat, and Cynomolgus Monkey PK data analysis. […] PK parameters were estimated using WinNonlin Enterprise Version 5.0.1 (Pharsight Corp., Mountain View, Calif.). The nominal dose administered for each group was used for modeling. Since a single concentration-time profile for mice was determined for each group, one estimate of each PK parameter was obtained and is reported, along with the standard error (SE) of the fit of each PK parameter. For rats and monkeys, PK parameters are reported as mean (+/−SD).
For IV administrations, a two-compartment elimination model with IV bolus input and first-order elimination was used to describe the observed data (WinNonlin Model 7). Concentrations were weighted using iterative reweighting (1/ŷ^2) and the Nelder-Mead minimization algorithm. The following equation was used to calculate concentration over time in Model 7: […]

c-met = c-met (Rattus norvegicus, UniProt P97523); assay: Binding to c-met in rats
Sequence of c-met (P97523 25-1382): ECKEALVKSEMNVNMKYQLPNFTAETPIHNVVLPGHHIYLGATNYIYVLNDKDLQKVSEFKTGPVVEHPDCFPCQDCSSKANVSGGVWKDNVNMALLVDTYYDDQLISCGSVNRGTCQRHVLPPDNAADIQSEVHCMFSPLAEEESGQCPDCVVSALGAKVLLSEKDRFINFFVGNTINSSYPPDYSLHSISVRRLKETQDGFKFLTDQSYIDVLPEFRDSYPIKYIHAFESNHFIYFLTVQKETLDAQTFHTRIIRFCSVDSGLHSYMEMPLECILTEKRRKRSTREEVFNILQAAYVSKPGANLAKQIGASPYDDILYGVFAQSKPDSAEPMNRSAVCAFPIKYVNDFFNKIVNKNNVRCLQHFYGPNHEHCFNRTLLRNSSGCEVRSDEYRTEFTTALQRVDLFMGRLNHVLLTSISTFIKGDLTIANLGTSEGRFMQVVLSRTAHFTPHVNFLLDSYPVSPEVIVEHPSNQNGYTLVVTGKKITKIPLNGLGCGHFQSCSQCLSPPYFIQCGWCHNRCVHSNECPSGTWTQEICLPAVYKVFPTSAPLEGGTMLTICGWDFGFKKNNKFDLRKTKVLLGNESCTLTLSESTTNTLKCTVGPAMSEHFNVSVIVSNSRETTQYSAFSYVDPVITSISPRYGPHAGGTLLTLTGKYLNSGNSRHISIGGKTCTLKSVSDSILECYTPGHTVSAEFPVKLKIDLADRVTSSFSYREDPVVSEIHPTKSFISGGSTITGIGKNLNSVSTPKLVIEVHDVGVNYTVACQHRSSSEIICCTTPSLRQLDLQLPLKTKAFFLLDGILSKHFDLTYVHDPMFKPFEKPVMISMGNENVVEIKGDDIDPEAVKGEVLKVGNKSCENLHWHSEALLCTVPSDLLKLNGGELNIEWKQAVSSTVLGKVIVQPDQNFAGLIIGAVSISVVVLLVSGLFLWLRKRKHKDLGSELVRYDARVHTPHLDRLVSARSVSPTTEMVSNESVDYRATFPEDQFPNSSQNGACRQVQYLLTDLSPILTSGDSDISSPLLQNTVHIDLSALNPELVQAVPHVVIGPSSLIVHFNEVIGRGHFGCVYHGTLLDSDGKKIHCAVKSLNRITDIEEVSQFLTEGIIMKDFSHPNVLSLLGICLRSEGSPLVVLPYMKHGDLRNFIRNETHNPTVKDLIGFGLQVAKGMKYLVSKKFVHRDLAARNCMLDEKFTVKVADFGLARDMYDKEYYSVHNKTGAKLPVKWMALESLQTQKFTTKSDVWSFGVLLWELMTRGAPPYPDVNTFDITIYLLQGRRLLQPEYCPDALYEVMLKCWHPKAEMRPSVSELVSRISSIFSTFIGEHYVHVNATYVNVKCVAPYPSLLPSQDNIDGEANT

[5] = Phase I dose-escalation study: safety and tolerability; format: in vivo, humans
Experimental: as §1, §2

MetMAb: recombinant, humanized, monovalent (one-armed) monoclonal antibody directed against human c-met
Inter-individual variability of serum concentrations at each dose level [1]: less than 30% | Clearance compared to the other dose groups ([1]; 1 mg/kg dose): slightly faster clearance | Half-life ([1]; IV Q3W): approximately 10 days | PK linearity ([1]; dose range 4 to 30 mg/kg): linear pharmacokinetics | Change in serum HGF expression, two patients with highest baseline HGF (HGF; 24 h post drug treatment): significant decrease; also recorded: significantly decreased | Change in serum HGF expression with MetMAb treatment, in general (HGF; Phase I patients): little or no increase | Decrease of serum HGF levels post drug treatment, patient 11009 (HGF; remained low for the duration of the study): 70% | Predicted clearance in humans [2]: 10 mL/day/kg | Multiple Dose Safety Factor: Body Surface Area [3]: 105 | Multiple Dose Safety Factor: Total Dose [3]: 325 | Single Dose Safety Factor: Body Surface Area [3]: 32 | Single Dose Safety Factor: Single Dose [3]: 100 | Terminal Half-Life ([4]; Sprague Dawley rat): 124 h | V1 ([4]; Sprague Dawley rat): 0.0446 L/kg | Vss ([4]; Sprague Dawley rat): 0.107 L/kg | CL ([4]; Sprague Dawley rat (n = 6)): 18.8 mL/day/kg | Binding to c-met (c-met): does not bind to c-met | Abdominal pain, drug-related, Grade 1 or 2 (patients) ([5]; Total (n = 21)): 0 | Abdominal pain, drug-related, Grade 3 (patients) ([5]; Total (n = 21)): 1 (4.8%) | Anorexia, drug-related, Grade 1 or 2 (patients) ([5]; Total (n = 21)): 2 | Anorexia, drug-related, Grade 3 (patients) ([5]; Total (n = 21)): 0 | Any adverse event, drug-related, Grade 3 (patients) ([5]; Total (n = 21)): 2 (9.5%) | Diarrhoea, drug-related, Grade 1 or 2 (patients) ([5]; Total (n = 21)): 1 | Diarrhoea, drug-related, Grade 3 (patients) ([5]; Total (n = 21)): 0 | Dysgeusia, drug-related, Grade 1 or 2 (patients) ([5]; Total (n = 21)): 1 | Dysgeusia, drug-related, Grade 3 (patients) ([5]; Total (n = 21)): 0 | Fatigue, drug-related, Grade 1 or 2 (patients) ([5]; Total (n = 21)): 7 | Fatigue, drug-related, Grade 3 (patients) ([5]; Total (n = 21)): 0 | Flushing, drug-related, Grade 1 or 2 (patients) ([5]; Total (n = 21)): 1 | Flushing, drug-related, Grade 3 (patients) ([5]; Total (n = 21)): 0 | Gastroesophageal reflux disease (GERD), drug-related, Grade 1 or 2 (patients) ([5]; Total (n = 21)): 1 | Gastroesophageal reflux disease (GERD), drug-related, Grade 3 (patients) ([5]; Total (n = 21)): 0 | Hypoalbuminaemia, drug-related, Grade 1 or 2 (patients) ([5]; Total (n = 21)): 2 | Hypoalbuminaemia, drug-related, Grade 3 (patients) ([5]; Total (n = 21)): 0 | Muscle spasms, drug-related, Grade 1 or 2 (patients) ([5]; Total (n = 21)): 1 | Muscle spasms, drug-related, Grade 3 (patients) ([5]; Total (n = 21)): 0 | Mydriasis, drug-related, Grade 1 or 2 (patients) ([5]; Total (n = 21)): 1 | Mydriasis, drug-related, Grade 3 (patients) ([5]; Total (n = 21)): 0 | Nausea, drug-related, Grade 1 or 2 (patients) ([5]; Total (n = 21)): 3 | Nausea, drug-related, Grade 3 (patients) ([5]; Total (n = 21)): 0 | Oedema peripheral, drug-related, Grade 1 or 2 (patients) ([5]; Total (n = 21)): 2 | Oedema peripheral, drug-related, Grade 3 (patients) ([5]; Total (n = 21)): 0 | Oral candidiasis, drug-related, Grade 1 or 2 (patients) ([5]; Total (n = 21)): 1 | Oral candidiasis, drug-related, Grade 3 (patients) ([5]; Total (n = 21)): 0 | Paraesthesia oral, drug-related, Grade 1 or 2 (patients) ([5]; Total (n = 21)): 1 | Paraesthesia oral, drug-related, Grade 3 (patients) ([5]; Total (n = 21)): 0 | Pyrexia, drug-related, Grade 1 or 2 (patients) ([5]; Total (n = 21)): 0 | Rash, drug-related, Grade 1 or 2 (patients) ([5]; Total (n = 21)): 1 | Rash, drug-related, Grade 3 (patients) ([5]; Total (n = 21)): 0 | Swelling face, drug-related, Grade 1 or 2 (patients) ([5]; Total (n = 21)): 1 | Swelling face, drug-related, Grade 3 (patients) ([5]; Total (n = 21)): 0 | Vomiting, drug-related, Grade 1 or 2 (patients) ([5]; Total (n = 21)): 3 | Vomiting, drug-related, Grade 3 (patients) ([5]; Total (n = 21)): 0 | Pyrexia, drug-related, Grade 3 (patients) ([5]; Total (n = 21), Dose Limiting Toxicity (DLT)): 1 (4.8%) | Dose limiting toxicity (DLT) ([5]; at 4 mg/kg, doses up to 30 mg/kg): A single dose limiting toxicity (DLT) of Grade 3 pyrexia | Grade 3 toxicity of abdominal pain ([5]; at 20 mg/kg): One | Most commonly reported adverse event ([5]; dose-escalation): fatigue (Grade 1, 2) | Drug-related Grade 4 toxicities ([5]; dose-escalation, 1-30 mg/kg): No drug-related Grade 4 toxicities | Safety and tolerability as a single agent ([5]; doses up to 30 mg/kg, every 3 weeks): safe and generally well tolerated
